Assays:
Test in all cases: cell-based or functional assay
[1] = biological target: HIV-1 Env of pseudovirus isolate MGRM-G-015 (subtype G) (HIV-1)
[2] = biological target: HIV-1 Env of isolate 94UG103 (subtype A) (HIV-1)
[3] = biological target: HIV-1 Env of isolate MGRM-F1-004 (subtype F) (HIV-1)
[4] = biological target: HIV-1 Env of isolate MGRM-Chronic-B-010 (subtype B) (HIV-1)
[5] = biological target: HIV-1 Env of isolate MGRM-D-019 (subtype D) (HIV-1)
[6] = biological target: HIV-1 Env of isolate MGRM-AE-005 (subtype AE) (HIV-1)
[7] = biological target: HIV-1 Env of isolate TRO.11 (subtype B) (HIV-1)
[8] = biological target: HIV-1 Env of isolate MGRM-D-011 (subtype D) (HIV-1)
[9] = biological target: HIV-1 Env of isolate MGRM-F1-006 (subtype F) (HIV-1)
[10] = biological target: HIV-1 Env of isolate MGRM-D-013 (subtype D) (HIV-1)
[11] = biological target: HIV-1 Env of isolate MGRM-D-008 (subtype D) (HIV-1)
[12] = biological target: HIV-1 Env of isolate MGRM-Chronic-B-012 (subtype B) (HIV-1)
[13] = biological target: HIV-1 Env of isolate 97ZA012 (subtype C) (HIV-1)
[14] = biological target: HIV-1 Env of isolate MGRM-D-002 (subtype D) (HIV-1)
[15] = biological target: HIV-1 Env of pseudovirus isolate MGRM-G-019 (subtype G) (HIV-1)
[16] = biological target: HIV-1 Env of isolate 92WR024 (subtype A) (HIV-1)
[17] = biological target: HIV-1 Env of isolate MG RM-C-019 (subtype C) (HIV-1)
[18] = biological target: HIV-1 Env of isolate 94 KE 105 (subtype AC) (HIV-1)
[19] = biological target: HIV-1 Env of pseudovirus isolate MGRM-G-006 (subtype G) (HIV-1)
[20] = biological target: HIV-1 Env of isolate 92UG114 (subtype D) (HIV-1)
[21] = biological target: HIV-1 Env of isolate MGRM-F1-010 (subtype F) (HIV-1)
[22] = biological target: HIV-1 Env of isolate MGRM-AE-001 (subtype AE) (HIV-1)
[23] = biological target: HIV-1 Env of isolate PVO.4 (subtype B) (HIV-1)
[24] = biological target: HIV-1 Env of pseudovirus isolate MGRM-G-017 (subtype G) (HIV-1)
[25] = biological target: HIV-1 Env of isolate MGRM-AE-007 (subtype AE) (HIV-1)
[26] = biological target: HIV-1 Env of isolate MGRM-D-003 (subtype D) (HIV-1)
[27] = biological target: HIV-1 Env of isolate MG RM-C-022 (subtype C) (HIV-1)
[28] = biological target: HIV-1 Env of isolate MGRM-D-016 (subtype D) (HIV-1)
[29] = biological target: HIV-1 Env of isolate 92WR020 (subtype A) (HIV-1)
[30] = biological target: HIV-1 Env of isolate 92WR009 (subtype A) (HIV-1)
[31] = biological target: HIV-1 Env of isolate MGRM-F1-013 (subtype F) (HIV-1)
[32] = biological target: HIV-1 Env of isolate APV_6 (subtype B) (HIV-1)
[33] = biological target: HIV-1 Env of isolate MG RM-C-024 (subtype C) (HIV-1)
[34] = biological target: HIV-1 Env of isolate 6535.3 (subtype B) (HIV-1)
[35] = biological target: HIV-1 Env of isolate MGRM-Chronic-B-008 (subtype B) (HIV-1)
[36] = biological target: HIV-1 Env of isolate MGRM-D-020 (subtype D) (HIV-1)
[37] = biological target: HIV-1 Env of pseudovirus isolate MGRM-G-016 (subtype G) (HIV-1)
[38] = biological target: HIV-1 Env of isolate MGRM-D-012 (subtype D) (HIV-1)
[39] = biological target: HIV-1 Env of isolate MGRM-AE-006 (subtype AE) (HIV-1)
[40] = biological target: HIV-1 Env of isolate MGRM-Chronic-B-024 (subtype B) (HIV-1)
[41] = biological target: HIV-1 Env of pseudovirus isolate MGRM-G-014 (subtype G) (HIV-1)
[42] = biological target: HIV-1 Env of isolate 93TH305 (subtype B) (HIV-1)
[43] = biological target: HIV-1 Env of isolate MGRM-AE-002 (subtype AE) (HIV-1)
[44] = biological target: HIV-1 Env of pseudovirus isolate MGRM-G-009 (subtype G) (HIV-1)
[45] = biological target: HIV-1 Env of isolate CAAN.A2 (subtype B) (HIV-1)
[46] = biological target: HIV-1 Env of isolate MGRM-F1-012 (subtype F) (HIV-1)

1496_C09 (PG9) (TCN-109) (antibody)
IC50 [1]: 6.6 µg/mL | IC50 (pseudovirus neutralization) [2]: 0.34 µg/mL | IC50 (pseudovirus neutralization) [3]: 0.175 µg/mL | IC50 [4]: 0.004 µg/mL | IC50 (pseudovirus neutralization) [5]: 0.038 µg/mL | IC50 (pseudovirus neutralization) [6]: 0.282 µg/mL | IC50 (µg/mL), pseudovirus neutralization [7]: 16.9 µg/mL | IC50 (pseudovirus neutralization) [8]: 0.071 µg/mL | IC50 (pseudovirus neutralization) [9]: 7.25 µg/mL | IC50 (pseudovirus neutralization) [10]: 0.021 µg/mL | IC50 (pseudovirus neutralization) [11]: 11.5 µg/mL | IC50 [12]: 0.2 µg/mL | IC50 (µg/mL), pseudovirus neutralization [13]: 3.4 µg/mL | IC50 (pseudovirus neutralization) [14]: 0.021 µg/mL | IC50 [15]: 14.6 µg/mL | IC50 (pseudovirus neutralization) [16]: 0.258 µg/mL | IC50 (µg/mL), pseudovirus neutralization [17]: 0.005 µg/mL | IC50 (pseudovirus neutralization) [18]: 37.9 µg/mL | IC50 [19]: 1.98 µg/mL | IC50 (pseudovirus neutralization) [20]: 40.6 µg/mL | IC50 (pseudovirus neutralization) [21]: 0.012 µg/mL | IC50 (pseudovirus neutralization) [22]: 20.6 µg/mL | IC50 [23]: 24.8 µg/mL | IC50 [24]: 0.104 µg/mL | IC50 (pseudovirus neutralization) [25]: 0.18 µg/mL | IC50 (pseudovirus neutralization) [26]: 0.033 µg/mL | IC50 (µg/mL), pseudovirus neutralization [27]: 0.346 µg/mL | IC50 (pseudovirus neutralization) [28]: 0.098 µg/mL | IC50 (pseudovirus neutralization) [29]: 0.141 µg/mL | IC50 (pseudovirus neutralization) [30]: 0.05 µg/mL | IC50 (pseudovirus neutralization) [31]: 1.25 µg/mL | IC50 [32]: 0.181 µg/mL | IC50 (µg/mL), pseudovirus neutralization [33]: 0.227 µg/mL | IC50 [34]: 1.05 µg/mL | IC50 [35]: 8.78 µg/mL | IC50 (pseudovirus neutralization) [36]: 1.67 µg/mL | IC50 [37]: 1.36 µg/mL | IC50 (pseudovirus neutralization) [38]: 16.2 µg/mL | IC50 (pseudovirus neutralization) [39]: 0.063 µg/mL | IC50 [40]: 0.222 µg/mL | IC50 [41]: 16.5 µg/mL | IC50 [42]: 8.12 µg/mL | IC50 (pseudovirus neutralization) [43]: 0.04 µg/mL | IC50 [44]: 10.7 µg/mL | IC50 [45]: 19.3 µg/mL | IC50 (pseudovirus neutralization) [46]: 0.023 µg/mL

PGV04 (antibody)
IC50 [1]: 0.333 µg/mL | IC50 (pseudovirus neutralization) [2]: 0.202 µg/mL | IC50 (pseudovirus neutralization) [3]: 0.58 µg/mL | IC50 [4]: 0.744 µg/mL | IC50 (pseudovirus neutralization) [5]: 0.35 µg/mL | IC50 (pseudovirus neutralization) [6]: 0.051 µg/mL | IC50 (µg/mL), pseudovirus neutralization [7]: 0.121 µg/mL | IC50 (pseudovirus neutralization) [8]: 0.025 µg/mL | IC50 (pseudovirus neutralization) [9]: > 50 µg/mL | IC50 (pseudovirus neutralization) [10]: 0.088 µg/mL | IC50 (pseudovirus neutralization) [11]: 3.56 µg/mL | IC50 [12]: > 50 µg/mL | IC50 (µg/mL), pseudovirus neutralization [13]: 0.041 µg/mL | IC50 (pseudovirus neutralization) [14]: 0.322 µg/mL | IC50 [15]: 0.027 µg/mL | IC50 (pseudovirus neutralization) [16]: 0.31 µg/mL | IC50 (µg/mL), pseudovirus neutralization [17]: 9.63 µg/mL | IC50 (pseudovirus neutralization) [18]: 2.98 µg/mL | IC50 [19]: 0.083 µg/mL | IC50 (pseudovirus neutralization) [20]: 0.461 µg/mL | IC50 (pseudovirus neutralization) [21]: 0.184 µg/mL | IC50 (pseudovirus neutralization) [22]: 0.063 µg/mL | IC50 [23]: 0.454 µg/mL | IC50 [24]: 0.065 µg/mL | IC50 (pseudovirus neutralization) [25]: 5.75 µg/mL | IC50 (pseudovirus neutralization) [26]: > 50 µg/mL | IC50 (µg/mL), pseudovirus neutralization [27]: 18.3 µg/mL | IC50 (pseudovirus neutralization) [28]: 0.201 µg/mL | IC50 (pseudovirus neutralization) [29]: 0.055 µg/mL | IC50 (pseudovirus neutralization) [30]: 0.108 µg/mL | IC50 (pseudovirus neutralization) [31]: 0.084 µg/mL | IC50 [32]: 24.2 µg/mL | IC50 (µg/mL), pseudovirus neutralization [33]: > 50 µg/mL | IC50 [34]: 0.757 µg/mL | IC50 [35]: 0.166 µg/mL | IC50 (pseudovirus neutralization) [36]: 0.097 µg/mL | IC50 [37]: 0.019 µg/mL | IC50 (pseudovirus neutralization) [38]: 0.125 µg/mL | IC50 (pseudovirus neutralization) [39]: > 50 µg/mL | IC50 [40]: 2.52 µg/mL | IC50 [41]: 0.056 µg/mL | IC50 [42]: 0.255 µg/mL | IC50 (pseudovirus neutralization) [43]: 0.569 µg/mL | IC50 [44]: 0.043 µg/mL | IC50 [45]: 2.26 µg/mL | IC50 (pseudovirus neutralization) [46]: 0.25 µg/mL

VRC01 (antibody)
IC50 [1]: 0.548 µg/mL | IC50 (pseudovirus neutralization) [2]: 0.285 µg/mL | IC50 (pseudovirus neutralization) [3]: 0.305 µg/mL | IC50 [4]: 0.156 µg/mL | IC50 (pseudovirus neutralization) [5]: 0.119 µg/mL | IC50 (pseudovirus neutralization) [6]: 0.029 µg/mL | IC50 [7]: 0.186 µg/mL | IC50 (pseudovirus neutralization) [8]: 0.075 µg/mL | IC50 (pseudovirus neutralization) [9]: 2.86 µg/mL | IC50 (pseudovirus neutralization) [10]: 0.087 µg/mL | IC50 (pseudovirus neutralization) [11]: 0.854 µg/mL | IC50 [12]: 1.03 µg/mL | IC50 [13]: 0.088 µg/mL | IC50 (pseudovirus neutralization) [14]: 0.252 µg/mL | IC50 [15]: 0.06 µg/mL | IC50 (pseudovirus neutralization) [16]: 0.327 µg/mL | IC50 [17]: 1.13 µg/mL | IC50 (pseudovirus neutralization) [18]: 0.499 µg/mL | IC50 [19]: 0.055 µg/mL | IC50 (pseudovirus neutralization) [20]: 0.33 µg/mL | IC50 (pseudovirus neutralization) [21]: 0.097 µg/mL | IC50 (pseudovirus neutralization) [22]: 0.167 µg/mL | IC50 [23]: 0.218 µg/mL | IC50 [24]: 0.124 µg/mL | IC50 (pseudovirus neutralization) [25]: 0.835 µg/mL | IC50 (pseudovirus neutralization) [26]: 2.06 µg/mL | IC50 [27]: 13 µg/mL | IC50 (pseudovirus neutralization) [28]: 0.452 µg/mL | IC50 (pseudovirus neutralization) [29]: 0.13 µg/mL | IC50 (pseudovirus neutralization) [30]: 0.187 µg/mL | IC50 (pseudovirus neutralization) [31]: 0.17 µg/mL | IC50 [32]: 1.81 µg/mL | IC50 [33]: 3.4 µg/mL | IC50 [34]: 1.75 µg/mL | IC50 [35]: 0.155 µg/mL | IC50 (pseudovirus neutralization) [36]: 0.192 µg/mL | IC50 [37]: 0.063 µg/mL | IC50 (pseudovirus neutralization) [38]: 0.216 µg/mL | IC50 (pseudovirus neutralization) [39]: 4.65 µg/mL | IC50 [40]: 0.377 µg/mL | IC50 [41]: 0.056 µg/mL | IC50 [42]: 0.243 µg/mL | IC50 (pseudovirus neutralization) [43]: 0.217 µg/mL | IC50 [44]: 0.073 µg/mL | IC50 [45]: 0.722 µg/mL | IC50 (pseudovirus neutralization) [46]: 0.488 µg/mL
